Assays:
[1] = target: NapD with an N-terminal hexa His-tag (NapD^NHis) (Escherichia coli) (UniProt P0A9I5); assay: SAXS; purified NapD^NHis/NapA complex, P12 BioSAXS beamline (PETRA III), 7 °C
[2] = target: NapD with an N-terminal hexa His-tag (NapD^NHis) (Escherichia coli) (UniProt P0A9I5); assay: AUC; sedimentation equilibrium, 4 °C, about 100 kDa complex (fraction 80 of SEC), 0.5 to 1.0 mg/mL, interference and absorbance optics at 260, 280 and 300 nm

Chain of UniProt P0A9I5 (P0A9I5 whole entry): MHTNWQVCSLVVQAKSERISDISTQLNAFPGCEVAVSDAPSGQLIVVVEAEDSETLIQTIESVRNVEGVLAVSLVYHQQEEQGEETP

stoichiometry N [1]: 1
stoichiometry N [2]: 1
Substance: full-length NapA precursor protein (from UniProt P33937 37-828) (natural protein)

From publication PMC4159696
